Experimental findings from article doi:10.1101/2024.05.05.592606 (bioRxiv, 2024) are described below.

* marks the point of attachment. 5FAM = O=C1OC2(c3ccc(O)cc3Oc3cc(O)ccc32)c2ccc(C(=O)*)cc21

The chains are these.
B1: DAX1-3 FAM-labeled coregulator peptide (peptide)
peptide: 5FAM-QGSILYSLLMSAKQ-OH
SMILES: CC[C@H](C)[C@H](NC(=O)[C@H](CO)NC(=O)CNC(=O)[C@H](CCC(N)=O)NC(=O)c1ccc2c(c1)C(=O)OC21c2ccc(O)cc2Oc2cc(O)ccc21)C(=O)N[C@@H](CC(C)C)C(=O)N[C@@H](Cc1ccc(O)cc1)C(=O)N[C@@H](CO)C(=O)N[C@@H](CC(C)C)C(=O)N[C@@H](CC(C)C)C(=O)N[C@@H](CCSC)C(=O)N[C@@H](CO)C(=O)N[C@@H](C)C(=O)N[C@@H](CCCCN)C(=O)N[C@@H](CCC(N)=O)C(=O)O
B2: SHP-1 FAM-labeled coregulator peptide (peptide)
peptide: 5FAM-RPTILYALLSPSPR-OH
SMILES: CC[C@H](C)[C@H](NC(=O)[C@@H](NC(=O)[C@@H]1CCCN1C(=O)[C@H](CCCNC(=N)N)NC(=O)c1ccc2c(c1)C(=O)OC21c2ccc(O)cc2Oc2cc(O)ccc21)[C@@H](C)O)C(=O)N[C@@H](CC(C)C)C(=O)N[C@@H](Cc1ccc(O)cc1)C(=O)N[C@@H](C)C(=O)N[C@@H](CC(C)C)C(=O)N[C@@H](CC(C)C)C(=O)N[C@@H](CO)C(=O)N1CCC[C@H]1C(=O)N[C@@H](CO)C(=O)N1CCC[C@H]1C(=O)N[C@@H](CCCNC(=N)N)C(=O)O
B3: PGC1α FAM-labeled coregulator peptide (peptide)
peptide: 5FAM-EEPSLLKKLLLAPA-OH
SMILES: CC(C)C[C@H](NC(=O)[C@H](CC(C)C)NC(=O)[C@H](CC(C)C)NC(=O)[C@H](CCCCN)NC(=O)[C@H](CCCCN)NC(=O)[C@H](CC(C)C)NC(=O)[C@H](CC(C)C)NC(=O)[C@H](CO)NC(=O)[C@@H]1CCCN1C(=O)[C@H](CCC(=O)O)NC(=O)[C@H](CCC(=O)O)NC(=O)c1ccc2c(c1)C(=O)OC21c2ccc(O)cc2Oc2cc(O)ccc21)C(=O)N[C@@H](C)C(=O)N1CCC[C@H]1C(=O)N[C@@H](C)C(=O)O

In this experiment the target is human LRH-1 (NR5A2) ligand-binding domain (LBD) (human, UniProt O00482-1 266-541). The experiment is described as follows: fluorescence polarisation. A general note: In fluorescence polarisation assays a small probe gives low polarisation when free and higher when bound to something large.
human LRH-1 (NR5A2) ligand-binding domain (LBD), sequence (O00482 266-541): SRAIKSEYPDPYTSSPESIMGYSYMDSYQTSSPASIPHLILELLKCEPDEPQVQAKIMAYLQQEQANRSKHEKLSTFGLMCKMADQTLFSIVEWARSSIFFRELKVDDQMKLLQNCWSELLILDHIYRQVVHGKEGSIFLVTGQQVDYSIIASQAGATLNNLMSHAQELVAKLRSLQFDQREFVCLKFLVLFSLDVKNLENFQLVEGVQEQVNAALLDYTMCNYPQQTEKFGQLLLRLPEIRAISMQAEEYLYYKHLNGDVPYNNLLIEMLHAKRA
As to B1, the binding result is listed as “binds”.
The result for B2 reads “binds”; that for B3, “binds”.
